Assay in all cases: SPR
In general terms: Surface plasmon resonance follows binding to a sensor surface in real time, without labels.

In assay [1] the target is his-tagged knob domain protein of HAdV-B7 fiber (Human adenovirus B7).
Assay [2] concerns the target ALCAM protein, commercially available (Sino, Cat. No. 10045-H08H-100) (human) (UniProt Q13740).
In assay [3] the target is his-tagged knob domain protein of HAdV-B7 fiber (Human adenovirus B7). The source holds these as a separate data set.

Values joined by “and” are separate entries in the source; they are usually repeats but may differ in a detail not shown here. Identical values can stand only once. Like-named read-outs stand apart in the source and are kept apart here.

Usually Kd stands for the concentration at which binding is half-saturated. The low end stands for higher affinity, the high end for lower affinity. In assay [1], “DSG-2 protein (MCE, Cat. No. HY-P77917) (from UniProt Q14126 50-609) (receptor)” showed a Kd of 2610 nM.
“his-tagged knob domain protein of HAdV-B7 fiber (domain or fragment)”: the Kd in assay [1] was 3470 nM; in assay [2] it was 700 nM and 849 nM.

B1: ALCAM protein, commercially available (Sino, Cat. No. 10045-H08H-100) (receptor)
chain: WYTVNSAYGDTIIIPCRLDVPQNLMFGKWKYEKPDGSPVFIAFRSSTKKSVQYDDVPEYKDRLNLSENYTLSISNARISDEKRFVCMLVTEDNVFEAPTIVKVFKQPSKPEIVSKALFLETEQLKKLGDCISEDSYPDGNITWYRNGKVLHPLEGAVVIIFKKEMDPVTQLYTMTSTLEYKTTKADIQMPFTCSVTYYGPSGQKTIHSEQAVFDIYYPTEQVTIQVLPPKNAIKEGDNITLKCLGNGNPPPEEFLFYLPGQPEGIRSSNTYTLTDVRRNATGDYKCSLIDKKSMIASTAITVHYLDLSLNPSGEVTRQIGDALPVSCTISASRNATVVWMKDNIRLRSSPSFSSLHYQDAGNYVCETALQEVEGLKKRESLTLIVEGKPQIKMTKKTDPSGLSKTIICHVEGFPKPAIQWTITGSGSVINQTEESPYINGRYYSKIIISPEENVTLTCTAENQLERTVNSLNVSAISIPEHDEADEISDENREKVNDQAK
In assay [3], B1 gave a dissociation constant (Kd) of 961 nM.

These data come from publication PMC11686370.
